Earlier results on one substance are cited in article PMC2783455.

As a reminder, the Kd is the equilibrium constant for the complex coming apart.

This data set concerns the target Calmodulin (UniProt P0DP23).

With CyaA (from UniProt J7QLC0), the dissociation constant (Kd) was 0.2 nM.
